Tests used:
[1] = target: human IGF-1R(1-902)-His10 (human) (UniProt P08069); assay: ELISA on plates coated with rh-IGF-1R, HRPO anti-mouse IgG Fc [a]
[2] = target: human IGF-1R on cells (human) (UniProt P08069); assay: flow cytometry on MCF-7 cells, FITC anti-mouse IgG; x axis is log Ab conc. (nM)
Sequence of human IGF-1R on cells (human) (P08069 31-740, chain 1 of 2): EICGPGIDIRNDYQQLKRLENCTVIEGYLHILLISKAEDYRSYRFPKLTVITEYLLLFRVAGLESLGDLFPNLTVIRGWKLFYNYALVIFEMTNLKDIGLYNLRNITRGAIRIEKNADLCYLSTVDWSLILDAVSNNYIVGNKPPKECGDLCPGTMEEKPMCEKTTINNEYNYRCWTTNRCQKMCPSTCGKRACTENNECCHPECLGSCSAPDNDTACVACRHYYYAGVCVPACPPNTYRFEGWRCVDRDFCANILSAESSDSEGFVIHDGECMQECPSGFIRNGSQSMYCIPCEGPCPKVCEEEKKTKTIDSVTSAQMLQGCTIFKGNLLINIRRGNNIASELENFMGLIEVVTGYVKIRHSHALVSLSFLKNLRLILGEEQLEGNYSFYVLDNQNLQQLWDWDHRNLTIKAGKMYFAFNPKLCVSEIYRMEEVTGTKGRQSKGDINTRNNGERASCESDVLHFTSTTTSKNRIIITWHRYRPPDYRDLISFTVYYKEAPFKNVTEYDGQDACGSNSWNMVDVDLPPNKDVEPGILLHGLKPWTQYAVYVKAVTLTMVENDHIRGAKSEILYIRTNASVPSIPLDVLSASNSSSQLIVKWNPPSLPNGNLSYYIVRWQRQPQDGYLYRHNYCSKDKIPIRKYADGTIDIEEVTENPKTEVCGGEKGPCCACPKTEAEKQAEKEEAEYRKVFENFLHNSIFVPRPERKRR
Sequence of human IGF-1R on cells (human) (P08069 741-1367, chain 2 of 2): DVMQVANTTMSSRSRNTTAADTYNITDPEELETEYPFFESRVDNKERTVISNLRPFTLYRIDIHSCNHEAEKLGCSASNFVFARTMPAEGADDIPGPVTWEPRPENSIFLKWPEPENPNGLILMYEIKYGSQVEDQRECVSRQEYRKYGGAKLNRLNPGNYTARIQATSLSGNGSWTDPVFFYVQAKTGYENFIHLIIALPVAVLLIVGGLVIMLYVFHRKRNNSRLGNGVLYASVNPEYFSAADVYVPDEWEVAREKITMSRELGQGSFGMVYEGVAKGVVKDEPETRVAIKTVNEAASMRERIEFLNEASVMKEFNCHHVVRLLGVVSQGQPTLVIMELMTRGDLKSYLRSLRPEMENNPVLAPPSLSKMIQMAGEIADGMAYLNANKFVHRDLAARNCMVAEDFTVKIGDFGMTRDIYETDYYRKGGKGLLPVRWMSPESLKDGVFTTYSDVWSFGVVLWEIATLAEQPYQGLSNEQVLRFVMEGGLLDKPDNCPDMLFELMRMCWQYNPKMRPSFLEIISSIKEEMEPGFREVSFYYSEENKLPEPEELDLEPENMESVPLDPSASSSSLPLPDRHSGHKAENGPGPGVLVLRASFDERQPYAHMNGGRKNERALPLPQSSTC

Sequence of human IGF-1R(1-902)-His10 (human) (P08069 other isoform, or with tags, fused parts or gaps): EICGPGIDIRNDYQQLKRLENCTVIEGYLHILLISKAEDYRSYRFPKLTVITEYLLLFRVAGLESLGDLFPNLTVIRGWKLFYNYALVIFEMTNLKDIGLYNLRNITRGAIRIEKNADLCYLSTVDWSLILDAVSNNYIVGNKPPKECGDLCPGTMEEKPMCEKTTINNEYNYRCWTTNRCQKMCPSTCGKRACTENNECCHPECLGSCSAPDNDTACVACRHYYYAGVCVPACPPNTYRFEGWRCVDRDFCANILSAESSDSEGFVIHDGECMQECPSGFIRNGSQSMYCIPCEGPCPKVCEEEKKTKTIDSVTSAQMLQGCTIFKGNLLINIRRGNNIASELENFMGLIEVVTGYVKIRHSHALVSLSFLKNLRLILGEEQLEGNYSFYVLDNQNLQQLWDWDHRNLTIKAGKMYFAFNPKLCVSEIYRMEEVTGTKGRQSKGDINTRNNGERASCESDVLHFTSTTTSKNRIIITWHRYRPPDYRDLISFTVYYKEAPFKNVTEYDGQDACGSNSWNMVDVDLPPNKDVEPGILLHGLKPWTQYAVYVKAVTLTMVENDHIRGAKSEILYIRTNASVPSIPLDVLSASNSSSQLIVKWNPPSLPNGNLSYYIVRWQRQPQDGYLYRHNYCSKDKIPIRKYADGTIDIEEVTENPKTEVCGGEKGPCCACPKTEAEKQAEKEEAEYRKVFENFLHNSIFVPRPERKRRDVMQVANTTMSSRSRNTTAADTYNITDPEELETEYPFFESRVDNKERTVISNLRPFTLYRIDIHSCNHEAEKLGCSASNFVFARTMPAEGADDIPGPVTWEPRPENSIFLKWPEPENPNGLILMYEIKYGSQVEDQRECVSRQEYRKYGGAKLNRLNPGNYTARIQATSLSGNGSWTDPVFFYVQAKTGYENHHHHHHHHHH

IR3 (antibody)
EC50 (read off the curve) [1]: 0.2 nM | EC50 (read off the curve) [2]: 5 nM
